How the values were obtained:
Assay in all cases: SPOT array
[1] = biological target: T1, Abp1, P15891; conditions: median of control spots 935
T1 sequence (P15891 535-592, looked up): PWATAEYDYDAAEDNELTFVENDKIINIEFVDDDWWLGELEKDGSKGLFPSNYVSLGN

[2] = biological target: T2, Bbc1, P47068; conditions: median of control spots 796
T2 sequence (P47068 1-78, looked up): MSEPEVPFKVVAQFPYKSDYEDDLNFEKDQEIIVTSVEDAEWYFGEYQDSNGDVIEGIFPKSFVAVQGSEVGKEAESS

[3] = biological target: Bem1-1, P29366; conditions: median of control spots 4282
[4] = biological target: Bem1-2, P29366; conditions: median of control spots 4347
[5] = biological target: T3, Boi1, P38041; conditions: median of control spots 1162
T3 sequence (P38041 1-86, looked up): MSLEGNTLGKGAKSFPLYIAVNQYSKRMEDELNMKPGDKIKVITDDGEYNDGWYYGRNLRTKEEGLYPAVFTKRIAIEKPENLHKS

[6] = biological target: T4, Boi2, P39969; conditions: median of control spots 1161
T4 sequence (P39969 32-116, looked up): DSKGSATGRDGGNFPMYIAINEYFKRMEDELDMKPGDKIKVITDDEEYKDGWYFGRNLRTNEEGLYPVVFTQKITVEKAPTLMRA

[7] = biological target: T5, Bud14, P27637; conditions: median of control spots 956
T5 sequence (P27637 247-328, looked up): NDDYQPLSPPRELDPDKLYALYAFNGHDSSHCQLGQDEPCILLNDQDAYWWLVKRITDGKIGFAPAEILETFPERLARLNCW

[8] = biological target: T6, Bzz1-1, P38822; conditions: median of control spots 4446
T6 sequence (P38822 478-572, looked up): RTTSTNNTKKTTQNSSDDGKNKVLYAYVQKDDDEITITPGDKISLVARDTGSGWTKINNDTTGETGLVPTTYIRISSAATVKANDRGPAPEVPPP

[9] = biological target: T7, Bzz1-2, P38822; conditions: median of control spots 4538
T7 sequence (P38822 568-633, looked up): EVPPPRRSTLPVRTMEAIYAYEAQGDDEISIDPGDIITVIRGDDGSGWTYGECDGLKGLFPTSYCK

[10] = biological target: T8, Cdc25, P04821; conditions: median of control spots 969
T8 sequence (P04821 50-136, looked up): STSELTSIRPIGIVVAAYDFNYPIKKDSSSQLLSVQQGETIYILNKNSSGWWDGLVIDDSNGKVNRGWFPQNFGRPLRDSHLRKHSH

[11] = biological target: T9, Cyk3, Q07533; conditions: median of control spots 1451
T9 sequence (Q07533 1-83, looked up): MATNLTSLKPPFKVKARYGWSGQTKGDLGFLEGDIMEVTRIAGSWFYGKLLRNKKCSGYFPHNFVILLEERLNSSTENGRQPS

[12] = biological target: T10, Fus1, P11710; conditions: median of control spots 1200
T10 sequence (P11710 432-512, looked up): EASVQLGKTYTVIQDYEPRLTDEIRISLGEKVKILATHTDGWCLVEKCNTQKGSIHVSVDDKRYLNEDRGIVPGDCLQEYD

[13] = biological target: GST; conditions: median of control spots 978
[14] = biological target: T11, Hof1, Q05080; conditions: median of control spots 4086
T11 sequence (Q05080 590-669, looked up): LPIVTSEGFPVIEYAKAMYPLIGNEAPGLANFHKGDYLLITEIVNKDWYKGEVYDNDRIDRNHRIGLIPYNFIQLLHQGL

[15] = biological target: T12, Hse1, P38753; conditions: median of control spots 1727
T12 sequence (P38753 208-285, looked up): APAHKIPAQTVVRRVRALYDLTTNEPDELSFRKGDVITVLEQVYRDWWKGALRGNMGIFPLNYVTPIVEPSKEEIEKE

[16] = biological target: T13, Lsb1, P53281; conditions: median of control spots 388
T13 sequence (P53281 45-122, looked up): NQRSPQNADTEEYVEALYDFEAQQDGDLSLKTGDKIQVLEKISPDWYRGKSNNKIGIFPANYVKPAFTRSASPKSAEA

[17] = biological target: T14, Lsb3, P43603; conditions: median of control spots 406
T14 sequence (P43603 385-451, looked up): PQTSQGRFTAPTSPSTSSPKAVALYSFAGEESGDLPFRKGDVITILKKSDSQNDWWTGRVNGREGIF

[18] = biological target: T15, Lsb4, P32793; conditions: median of control spots 397
T15 sequence (P32793 402-468, looked up): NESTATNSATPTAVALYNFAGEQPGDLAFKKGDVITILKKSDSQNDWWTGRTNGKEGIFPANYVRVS

[19] = biological target: Myo3, P36006; conditions: median of control spots 468
[20] = biological target: T16, Myo5, Q04439; conditions: median of control spots 471
T16 sequence (Q04439 1072-1160, looked up): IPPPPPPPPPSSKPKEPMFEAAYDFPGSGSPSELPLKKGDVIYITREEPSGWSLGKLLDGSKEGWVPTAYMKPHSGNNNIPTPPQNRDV

[21] = biological target: T17, Nbp2, Q12163; conditions: median of control spots 357
T17 sequence (Q12163 103-180, looked up): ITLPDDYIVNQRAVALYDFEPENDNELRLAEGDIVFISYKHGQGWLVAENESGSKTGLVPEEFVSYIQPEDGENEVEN

[22] = biological target: T18, Pex13, P80667; conditions: median of control spots 1341
T18 sequence (P80667 295-386, looked up): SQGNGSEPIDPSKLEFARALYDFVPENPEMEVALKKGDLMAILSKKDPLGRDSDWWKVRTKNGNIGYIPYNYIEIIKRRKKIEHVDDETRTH

[23] = biological target: T19, Pin3, Q06449; conditions: median of control spots 2171
T19 sequence (Q06449 53-122, looked up): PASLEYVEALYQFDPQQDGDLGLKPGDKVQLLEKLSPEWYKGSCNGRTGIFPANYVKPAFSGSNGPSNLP

[24] = biological target: Rvs167, P39743; conditions: median of control spots 2707
[25] = biological target: Sho1, P40073; conditions: median of control spots 1148
[26] = biological target: T20, Sla1-2, P32790; conditions: median of control spots 712
T20 sequence (P32790 60-140, looked up): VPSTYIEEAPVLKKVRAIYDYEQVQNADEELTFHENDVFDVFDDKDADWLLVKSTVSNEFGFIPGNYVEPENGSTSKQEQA

[27] = biological target: T21, Sla1-3, P32790; conditions: median of control spots 5475
T21 sequence (P32790 344-424, looked up): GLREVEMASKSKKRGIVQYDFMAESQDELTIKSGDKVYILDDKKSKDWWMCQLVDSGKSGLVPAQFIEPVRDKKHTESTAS

Chain of Sho1, P40073 (P40073 287-367): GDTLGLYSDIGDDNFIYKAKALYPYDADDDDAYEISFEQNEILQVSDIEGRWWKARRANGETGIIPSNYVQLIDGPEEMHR
Chain of Rvs167, P39743 (P39743 419-482): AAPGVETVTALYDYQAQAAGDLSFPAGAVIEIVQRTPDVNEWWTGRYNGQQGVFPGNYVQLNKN
Chain of Bem1-1, P29366 (P29366 55-141): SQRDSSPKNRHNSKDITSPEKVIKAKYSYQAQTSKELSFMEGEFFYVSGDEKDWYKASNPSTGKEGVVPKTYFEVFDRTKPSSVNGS
Chain of Bem1-2, P29366 (P29366 139-227): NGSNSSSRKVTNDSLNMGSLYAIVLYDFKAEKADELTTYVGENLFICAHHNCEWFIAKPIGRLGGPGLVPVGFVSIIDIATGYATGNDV

NQARKPFLLPATELS
SPOT intensity [1]: 18 | SPOT intensity [2]: 30 | SPOT intensity [3]: 0 | SPOT intensity [4]: 1 | SPOT intensity [5]: 3 | SPOT intensity [6]: 0 | SPOT intensity [7]: 19 | SPOT intensity [8]: 0 | SPOT intensity [9]: 0 | SPOT intensity [10]: 16 | SPOT intensity [11]: 3 | SPOT intensity [12]: 0 | SPOT intensity [13]: 2 | SPOT intensity [14]: 5 | SPOT intensity [15]: 4 | SPOT intensity [16]: 576 | SPOT intensity [17]: 0 | SPOT intensity [18]: 0 | SPOT intensity [19]: 1 | SPOT intensity [20]: 1 | SPOT intensity [21]: 4 | SPOT intensity [22]: 0 | SPOT intensity [23]: 4 | SPOT intensity [24]: 0 | SPOT intensity [25]: 38 | SPOT intensity [26]: 1 | SPOT intensity [27]: 2

FYNRTAFQLPGDARV
SPOT intensity [1]: 3 | SPOT intensity [2]: 0 | SPOT intensity [3]: 0 | SPOT intensity [4]: 1 | SPOT intensity [5]: 0 | SPOT intensity [6]: 0 | SPOT intensity [7]: 4 | SPOT intensity [8]: 2 | SPOT intensity [9]: 0 | SPOT intensity [10]: 0 | SPOT intensity [11]: 0 | SPOT intensity [12]: 0 | SPOT intensity [13]: 0 | SPOT intensity [14]: 0 | SPOT intensity [15]: 2 | SPOT intensity [16]: 2060 | SPOT intensity [17]: 2 | SPOT intensity [18]: 0 | SPOT intensity [19]: 1 | SPOT intensity [20]: 1 | SPOT intensity [21]: 2 | SPOT intensity [22]: 6 | SPOT intensity [23]: 151 | SPOT intensity [24]: 0 | SPOT intensity [25]: 4 | SPOT intensity [26]: 0 | SPOT intensity [27]: 5

SRQAIPPPVPNRPGG
SPOT intensity [1]: 24 | SPOT intensity [2]: 247 | SPOT intensity [3]: 1 | SPOT intensity [4]: 3 | SPOT intensity [5]: 0 | SPOT intensity [6]: 0 | SPOT intensity [7]: 0 | SPOT intensity [8]: 3 | SPOT intensity [9]: 0 | SPOT intensity [10]: 0 | SPOT intensity [11]: 1 | SPOT intensity [12]: 1 | SPOT intensity [13]: 0 | SPOT intensity [14]: 1 | SPOT intensity [15]: 22 | SPOT intensity [16]: 1590 | SPOT intensity [17]: 658 | SPOT intensity [18]: 373 | SPOT intensity [19]: 63 | SPOT intensity [20]: 21 | SPOT intensity [21]: 1 | SPOT intensity [22]: 133 | SPOT intensity [23]: 55 | SPOT intensity [24]: 833 | SPOT intensity [25]: 14 | SPOT intensity [26]: 0 | SPOT intensity [27]: 3

AIPPPVPNRPGGTTN
SPOT intensity [1]: 7 | SPOT intensity [2]: 196 | SPOT intensity [3]: 1 | SPOT intensity [4]: 1 | SPOT intensity [5]: 1 | SPOT intensity [6]: 0 | SPOT intensity [7]: 2 | SPOT intensity [8]: 2 | SPOT intensity [9]: 0 | SPOT intensity [10]: 0 | SPOT intensity [11]: 2 | SPOT intensity [12]: 0 | SPOT intensity [13]: 0 | SPOT intensity [14]: 1 | SPOT intensity [15]: 22 | SPOT intensity [16]: 948 | SPOT intensity [17]: 453 | SPOT intensity [18]: 222 | SPOT intensity [19]: 8 | SPOT intensity [20]: 0 | SPOT intensity [21]: 1 | SPOT intensity [22]: 375 | SPOT intensity [23]: 48 | SPOT intensity [24]: 1430 | SPOT intensity [25]: 0 | SPOT intensity [26]: 0 | SPOT intensity [27]: 1

DAPASKPSVPPRNYF
SPOT intensity [1]: 17 | SPOT intensity [2]: 6 | SPOT intensity [3]: 0 | SPOT intensity [4]: 0 | SPOT intensity [5]: 0 | SPOT intensity [6]: 0 | SPOT intensity [7]: 0 | SPOT intensity [8]: 0 | SPOT intensity [9]: 0 | SPOT intensity [10]: 0 | SPOT intensity [11]: 1 | SPOT intensity [12]: 0 | SPOT intensity [13]: 0 | SPOT intensity [14]: 0 | SPOT intensity [15]: 0 | SPOT intensity [16]: 1310 | SPOT intensity [17]: 125 | SPOT intensity [18]: 231 | SPOT intensity [19]: 0 | SPOT intensity [20]: 0 | SPOT intensity [21]: 2 | SPOT intensity [22]: 91 | SPOT intensity [23]: 23 | SPOT intensity [24]: 58 | SPOT intensity [25]: 0 | SPOT intensity [26]: 0 | SPOT intensity [27]: 12

NLDRSKISLPDFDDE
SPOT intensity [1]: 23 | SPOT intensity [2]: 15 | SPOT intensity [3]: 3 | SPOT intensity [4]: 0 | SPOT intensity [5]: 7 | SPOT intensity [6]: 2 | SPOT intensity [7]: 20 | SPOT intensity [8]: 3 | SPOT intensity [9]: 3 | SPOT intensity [10]: 35 | SPOT intensity [11]: 4 | SPOT intensity [12]: 4 | SPOT intensity [13]: 36 | SPOT intensity [14]: 8 | SPOT intensity [15]: 3 | SPOT intensity [16]: 84 | SPOT intensity [17]: 0 | SPOT intensity [18]: 5 | SPOT intensity [19]: 1 | SPOT intensity [20]: 0 | SPOT intensity [21]: 6 | SPOT intensity [22]: 3 | SPOT intensity [23]: 8 | SPOT intensity [24]: 6 | SPOT intensity [25]: 16 | SPOT intensity [26]: 1 | SPOT intensity [27]: 2

Source: article PMC2756588
